These results are taken from patent US20140080766A1 (MIT, published 2014).

In the assay the target is C7LLO (CEA-binding Fn3 - listeriolysin O fusion protein).

B1: carcinoembryonic antigen (CEA) on HT-1080(CEA) and HT-29 cells (other, human, UniProt P06731 35-685, looked up)
chain: KLTIESTPFNVAEGKEVLLLVHNLPQHLFGYSWYKGERVDGNRQIIGYVIGTQQATPGPAYSGREIIYPNASLLIQNIIQNDTGFYTLHVIKSDLVNEEATGQFRVYPELPKPSISSNNSKPVEDKDAVAFTCEPETQDATYLWWVNNQSLPVSPRLQLSNGNRTLTLFNVTRNDTASYKCETQNPVSARRSDSVILNVLYGPDAPTISPLNTSYRSGENLNLSCHAASNPPAQYSWFVNGTFQQSTQELFIPNITVNNSGSYTCQAHNSDTGLNRTTVTTITVYAEPPKPFITSNNSNPVEDEDAVALTCEPEIQNTTYLWWVNNQSLPVSPRLQLSNDNRTLTLLSVTRNDVGPYECGIQNELSVDHSDPVILNVLYGPDDPTISPSYTYYRPGVNLSLSCHAASNPPAQYSWLIDGNIQQHTQELFISNITEKNSGLYTCQANNSASGHSRTTVKTITVSAELPKPSISSNNSKPVEDKDAVAFTCEPEAQNTTYLWWVNGQSLPVSPRLQLSNGNRTLTLFNVTRNDARAYVCGIQNSVSANRSDPVTLDVLYGPDTPIISPPDSSYLSGANLNLSCHSASNPSPQYSWRINGIPQQHTQVLFIAKITPNNNGTYACFVSNLATGRNNSIVKSITVSASGTSPGLSA
What is called Kd is the constant that tells how readily two partners part at equilibrium. A higher Kd goes with weaker binding. With B1, the Kd stood at 4.09 nM.
